The record followed here is paper PMC2198949 (The Journal of Experimental Medicine, 1997).

The assay deals with T1, murine 4-1BBL–CD8 fusion protein (mouse, UniProt P41274 104-309).
T1 sequence (looked up): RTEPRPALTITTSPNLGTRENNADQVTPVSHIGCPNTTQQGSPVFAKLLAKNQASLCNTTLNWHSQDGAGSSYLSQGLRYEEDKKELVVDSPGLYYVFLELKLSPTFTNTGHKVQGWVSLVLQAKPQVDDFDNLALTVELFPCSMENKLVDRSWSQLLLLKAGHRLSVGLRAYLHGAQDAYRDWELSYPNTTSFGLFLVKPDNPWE
Put plainly: SPR.

B1: murine 4-1BB–Ig fusion protein (Fc fusion, mouse, UniProt P20334 22-185, looked up)
chain: GAVQNSCDNCQPGTFCRKYNPVCKSCPPSTFSSIGGQPNCNICRVCAGYFRFKKFCSSTHNAECECIEGFHCLGPQCTRCEKDCRPGQELTKQGCKTCSLGTFNDQNGTGVCRPWTNCSLDGRSVLKTGTTEKDVVCGPPVVSFSPSTTISVTPEGGPGGHSLQ
As to B1, the Kd turned out to be 1.16 nM, the koff came out at 0.000213 s⁻¹ and the kon was 183000 M⁻¹ s⁻¹.
